Experimental findings from patent US7854918B2, “Composition for medical use having improved water-solubility of peptide and metal-labeling efficiency and preparation for medical use comprising metal-labeled peptide” (Nihon Medi-Physics Co., Ltd., priority 2004, dated 2010) are described below.

This data set can be described thus: External observation of peptide sample solutions (presence or absence of white turbidity). Format: physicochemical. Here is the method:
Peptide 1, Peptide 2, and Peptide 3 (100 μg each) were separately added to 410 mM arginine solutions (pH 11) to adjust each total amount to 700 μL. Molarities in these solutions are 94 μM (Peptide 1), 99 μM (Peptide 2), and 161 μM (Peptide 3). […] Then, 200 μL each of the sample solutions was filtered with a filter Millex (registered trademark)-GV (trade name, manufactured by Nihon Millipore) with a pore size of 0.22 μm. The sample solutions before filtration and the sample solutions after filtration were respectively analyzed by reverse-phase HPLC. Peak area percentages were determined from the peak area values of the peptides before and after filtration and used as elution rates. HPLC analytical conditions are shown below.
For a comparative example, Peptide 1, Peptide 2, and Peptide 3 were separately dissolved in each of water and dimethylsulfoxide (DMSO) to prepare samples having a peptide concentration of 94 μM, 99 μM, or 161 μM, which were studied in the same way as above.
Arginine, lysine, and histidine were separately dissolved in water to prepare 410 mM arginine solution, 489 mM lysine solution, and 90 mM histidine solution. An aqueous solution of sodium hydroxide and hydrochloric acid were added to these solutions to adjust the pH of the aqueous solutions of lysine and histidine to 8, 9, 10, and 11, and the pH of the aqueous solution of arginine to 8, 8.5, 9, 9.5, 10, and 11. Subsequently, Peptide 1 was added to these aqueous solutions to prepare 94 μM Peptide 1 solutions. […] Then, 200 μL each of the sample solutions was filtered with a filter Millex (registered trademark)-GV (trade name, manufactured by Nihon Millipore) with a pore size of 0.22 μm. The sample solutions before filtration and the sample solutions after filtration were respectively analyzed by reverse-phase HPLC. Peak area percentages were determined from the peak area values of Peptide 1 before and after filtration and used as elution rates. HPLC analytical conditions were the same as the conditions described in Example 1.
Imidazole was dissolved in water to prepare 1 mM imidazole solution. pH was adjusted to 8, 8.5, and 9 by adding an appropriate amount of hydrochloric acid to this solution. Subsequently, Peptide 1 was added to these imidazole solutions to prepare 94 μM Peptide 1 solutions. […] Then, 200 μL each of the sample solutions was filtered with a filter Millex (registered trademark)-GV (trade name, manufactured by Nihon Millipore) with a pore size of 0.22 μm. The sample solutions before filtration and the sample solutions after filtration were respectively analyzed by reverse-phase HPLC. Peak area percentages were determined from the peak area values of Peptide 1 before and after filtration and used as elution rates. HPLC analytical conditions were the same as the conditions described in Example 1.
Disodium hydrogen phosphate, sodium dihydrogen citrate, sodium ascorbate, and imidazole were separately dissolved in water to prepare their respective aqueous solutions with pH 9 at concentrations described in Table 4. pH adjustment was performed with hydrochloric acid and an aqueous solution of sodium hydroxide. The above-described aqueous solutions were separately added to the weighed Peptide 1 to prepare 94 μM Peptide 1 solutions. […] These Peptide 1 solutions were compared with the Peptide 1 sample solutions using the respective aqueous solutions of disodium hydrogen phosphate, sodium dihydrogen citrate, and sodium ascorbate used as comparative controls. Subsequently, 200 μL each of the sample solutions was filtered with a filter Millex (registered trademark)-GV (trade name, manufactured by Nihon Millipore) with a pore size of 0.22 μm. The sample solutions before filtration and the sample solutions after filtration were respectively analyzed by reverse-phase HPLC. […]

“Also recorded” adds a separate entry of the source. Square brackets hold non-standard residues; d marks the D form. Ends that are not written are not given here. * marks the point of attachment. Nle = CCCC[C@H](N)C(=O)O; For = O=C*

Take “formyl-Nle-Leu-Phe-Nle-Tyr-Lys(NH2)-ε(-Ser-D-Arg-Asp-Cys-Asp-Asp) (For-[Nle]LF[Nle]YKS[dR]DCDD; also: Lys(NH2): Lys α-carboxamide, Ser-D-Arg-Asp-Cys-Asp-Asp branch on Lys ε-amine) [Peptide 1]”: the Appearance result (1 mM imidazole, pH 8, 94 μM peptide) was “colorless and transparent”; the Appearance result (1 mM imidazole, pH 8.5, 94 μM peptide) is “colorless and transparent”; the Appearance result (1 mM imidazole, pH 9, 94 μM peptide) was “colorless and transparent”; the Appearance result (90 mM histidine, pH 9, 94 μM peptide) is “colorless, transparent”; the Appearance entry (100 mM disodium hydrogen phosphate, pH 9, 94 μM peptide) was “colorless, transparent”; the Appearance entry (243 mM sodium dihydrogen citrate, pH 9, 94 μM peptide) was “white turbidity; also recorded: Whitish”. Also, the Appearance result is listed as “white turbidity; also recorded: Whitish” (401 mM sodium ascorbate, pH 9, 94 μM peptide); “Colorless,” (410 mM arginine solution, pH 11, peptide 94/99/161 μM); “Evident white turbidity” (410 mM arginine, pH 8, 94 μM peptide); “colorless, transparent” (410 mM arginine, pH 9, 94 μM peptide); “colorless, transparent” (489 mM lysine, pH 9, 94 μM peptide); “Weak white turbidity” (aqueous solutions of arginine, lysine and histidine at pH 8.5 or less). Moreover, the Appearance result runs as follows: (aqueous solutions of arginine, lysine and histidine at pH 9 or more) “colorless, transparent”; (solvent DMSO, peptide 94/99/161 μM) “Colorless,”; (solvent water, peptide 94 μM (Peptide 1), 99 μM (Peptide 2), 161 μM (Peptide 3)) “Whitish”.
